B1: Protein S100-G, residues 1 to 79; numbered along this chain, P02633 (parent)
chain: MSAKKSPEELKGIFEKYAAKEGDPNQLSKEELKLLLQTEFPSLLKGPSTLDELFEELDKNGDGEVSFEEFQVLVKKISQ

± gives the uncertainty stated by the source.

In the data set the parent is B1. The experiment in a line: abundance fitness (aPCA) (normalised: wild type 0, dead -1); higher = more abundant; growth selection in yeast, the domain comes from the species named. Particulars: Bos taurus.
Take MSAKKSPEELKGIFEKYAAKEGDPNQLSKEELKLLLQTEFPSLLKGPSTLDELFEELDKNGDGEVSFEEFQVLVKTISQ [K76T]: the abundance fitness was -0.175 ± 0.064. As to MSAKKSPEELKGIFEKYAAKEGDPNQLSKEELKLLLQTEFPSLLKGPSTLDELFEELDKNGDGEVSFEEFQVLVKHISQ [K76H], the abundance fitness is -0.153 ± 0.072. For MSAKKSPEELKGIFEKYAAKEGDPNQLSKEELKLLLQTEFPSLLKGPSTLDELFEELDKNGDGEVSFEEFQVLVKNISQ [K76N] the value was -0.196 ± 0.076; for MSAKKSPEELKGIFEKYAAKEGDPNQLSKEELKLLLQTEFPSLLKGPSTLDELFEELDKNGDGEVSFEEFQVLVKVISQ [K76V], -0.191 ± 0.071; for MSAKKSPEELKGIFEKYAAKEGDPNQLSKEELKLLLQTEFPSLLKGPSTLDELFEELDKNGDGEVSFEEFQVLVKLISQ [K76L], -0.247 ± 0.059. Under MSAKKSPEELKGIFEKYAAKEGDPNQLSKEELKLLLQTEFPSLLKGPSTLDELFEELDKNGDGEVSFEEFQVLVKCISQ [K76C] stands -0.29 ± 0.089; under MSAKKSPEELKGIFEKYAAKEGDPNQLSKEELKLLLQTEFPSLLKGPSTLDELFEELDKNGDGEVSFEEFQVLVKEISQ [K76E], -0.126 ± 0.1.

For MSAKKSPEELKGIFEKYAAKEGDPNQLSKEELKLLLQTEFPSLLKGPSTLDELFEELDKNGDGEVSFEEFQVLVKQISQ [K76Q], the abundance fitness is -0.056 ± 0.079. For MSAKKSPEELKGIFEKYAAKEGDPNQLSKEELKLLLQTEFPSLLKGPSTLDELFEELDKNGDGEVSFEEFQVLVKDISQ [K76D] the value was -0.127 ± 0.088.

As for MSAKKSPEELKGIFEKYAAKEGDPNQLSKEELKLLLQTEFPSLLKGPSTLDELFEELDKNGDGEVSFEEFQVLVKGISQ [K76G], the abundance fitness was found to be 0.011 ± 0.091.

With MSAKKSPEELKGIFEKYAAKEGDPNQLSKEELKLLLQTEFPSLLKGPSTLDELFEELDKNGDGEVSFEEFQVLVKPISQ [K76P], the abundance fitness was -0.238 ± 0.066. Under MSAKKSPEELKGIFEKYAAKEGDPNQLSKEELKLLLQTEFPSLLKGPSTLDELFEELDKNGDGEVSFEEFQVLVKYISQ [K76Y] stands -0.325 ± 0.076.

As for MSAKKSPEELKGIFEKYAAKEGDPNQLSKEELKLLLQTEFPSLLKGPSTLDELFEELDKNGDGEVSFEEFQVLVKIISQ [K76I], the abundance fitness was -0.131 ± 0.074.

With MSAKKSPEELKGIFEKYAAKEGDPNQLSKEELKLLLQTEFPSLLKGPSTLDELFEELDKNGDGEVSFEEFQVLVKKDSQ [I77D], the abundance fitness is -0.17 ± 0.11. With MSAKKSPEELKGIFEKYAAKEGDPNQLSKEELKLLLQTEFPSLLKGPSTLDELFEELDKNGDGEVSFEEFQVLVKKKSQ [I77K], the abundance fitness is -0.148 ± 0.083.

As for MSAKKSPEELKGIFEKYAAKEGDPNQLSKEELKLLLQTEFPSLLKGPSTLDELFEELDKNGDGEVSFEEFQVLVKKGSQ [I77G], the abundance fitness was -0.111 ± 0.089. Under MSAKKSPEELKGIFEKYAAKEGDPNQLSKEELKLLLQTEFPSLLKGPSTLDELFEELDKNGDGEVSFEEFQVLVKKHSQ [I77H] stands -0.155 ± 0.068; under MSAKKSPEELKGIFEKYAAKEGDPNQLSKEELKLLLQTEFPSLLKGPSTLDELFEELDKNGDGEVSFEEFQVLVKKLSQ [I77L], -0.073 ± 0.058.

On to MSAKKSPEELKGIFEKYAAKEGDPNQLSKEELKLLLQTEFPSLLKGPSTLDELFEELDKNGDGEVSFEEFQVLVKKNSQ [I77N], for which the abundance fitness is -0.025 ± 0.084.

Regarding MSAKKSPEELKGIFEKYAAKEGDPNQLSKEELKLLLQTEFPSLLKGPSTLDELFEELDKNGDGEVSFEEFQVLVKKFSQ [I77F], the abundance fitness came out at 0.051 ± 0.084. Take MSAKKSPEELKGIFEKYAAKEGDPNQLSKEELKLLLQTEFPSLLKGPSTLDELFEELDKNGDGEVSFEEFQVLVKKCSQ [I77C]: the abundance fitness is -0.136 ± 0.11. On to MSAKKSPEELKGIFEKYAAKEGDPNQLSKEELKLLLQTEFPSLLKGPSTLDELFEELDKNGDGEVSFEEFQVLVKKMSQ [I77M], for which the abundance fitness is -0.143 ± 0.075. MSAKKSPEELKGIFEKYAAKEGDPNQLSKEELKLLLQTEFPSLLKGPSTLDELFEELDKNGDGEVSFEEFQVLVKKASQ [I77A]: the abundance fitness is -0.169 ± 0.076. For MSAKKSPEELKGIFEKYAAKEGDPNQLSKEELKLLLQTEFPSLLKGPSTLDELFEELDKNGDGEVSFEEFQVLVKKESQ [I77E] the value was -0.142 ± 0.1; for MSAKKSPEELKGIFEKYAAKEGDPNQLSKEELKLLLQTEFPSLLKGPSTLDELFEELDKNGDGEVSFEEFQVKVKKISQ [L73K], -0.413 ± 0.082; for MSAKKSPEELKGIFEKYAAKEGDPNQLSKEELKLLLQTEFPSLLKGPSTLDELFEELDKNGDGEVSFEEFQVSVKKISQ [L73S], -0.187 ± 0.072.

Regarding MSAKKSPEELKGIFEKYAAKEGDPNQLSKEELKLLLQTEFPSLLKGPSTLDELFEELDKNGDGEVSFEEFQVVVKKISQ [L73V], the abundance fitness was -0.017 ± 0.073. Under MSAKKSPEELKGIFEKYAAKEGDPNQLSKEELKLLLQTEFPSLLKGPSTLDELFEELDKNGDGEVSFEEFQVWVKKISQ [L73W] stands 0.015 ± 0.093; under MSAKKSPEELKGIFEKYAAKEGDPNQLSKEELKLLLQTEFPSLLKGPSTLDELFEELDKNGDGEVSFEEFQVTVKKISQ [L73T], -0.071 ± 0.072; under MSAKKSPEELKGIFEKYAAKEGDPNQLSKEELKLLLQTEFPSLLKGPSTLDELFEELDKNGDGEVSFEEFQVYVKKISQ [L73Y], -0.05 ± 0.086.

Turning to MSAKKSPEELKGIFEKYAAKEGDPNQLSKEELKLLLQTEFPSLLKGPSTLDELFEELDKNGDGEVSFEEFQVQVKKISQ [L73Q], the abundance fitness is -0.28 ± 0.082. In the case of MSAKKSPEELKGIFEKYAAKEGDPNQLSKEELKLLLQTEFPSLLKGPSTLDELFEELDKNGDGEVSFEEFQVPVKKISQ [L73P], the abundance fitness was -0.797 ± 0.087.

Regarding MSAKKSPEELKGIFEKYAAKEGDPNQLSKEELKLLLQTEFPSLLKGPSTLDELFEELDKNGDGEVSFEEFQVRVKKISQ [L73R], the abundance fitness was -0.473 ± 0.071. Under MSAKKSPEELKGIFEKYAAKEGDPNQLSKEELKLLLQTEFPSLLKGPSTLDELFEELDKNGDGEVSFEEFQVNVKKISQ [L73N] stands -0.273 ± 0.086; under MSAKKSPEELKGIFEKYAAKEGDPNQLSKEELKLLLQTEFPSLLKGPSTLDELFEELDKNGDGEVSFEEFQVMVKKISQ [L73M], -0.05 ± 0.082.

(Values after the Human Domainome abundance scans (Beltran et al. 2025).)
